Measured values taken from the supplement of paper PMC12042874.
± gives the uncertainty stated by the source.

experiment: amyloid nucleation score (Sup35N fusion, yeast selection) (log enrichment); library NNK2; higher = more nucleation; inactive = no reads after selection
In short: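 Nucleation score: DiMSum log enrichment of output over input reads, centred on the mode score of non-aggregating sequences. Only sequences with at least 100 input reads were kept. Reads came from Illumina sequencing of plasmid inserts before and after 7 days of growth at 30°C without adenine and uracil, in psi-negative yeast expressing Sup35N fused to peptides of 20 random codons after 24 hours of induction with 100 μM copper sulfate.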

Q: For FRYAVPMCTFFADYFMSDQS, which amyloid nucleation score is on record?
A: inactive

Q: With FRYHRTSCQSHSVWRTFTSF as the substance, how does the amyloid nucleation score read?
A: -0.884 ± 0.39

Q: For FRYRIYGGHLTINRIIYSLV, which amyloid nucleation score is on record?
A: -0.702 ± 1.1

Q: With FSCSLQRIGEMSRDKSYTPA as the substance, how does the amyloid nucleation score read?
A: 0.503 ± 0.66

Q: With FSCSSDCLIFVSHRNRVLLN as the substance, how does the amyloid nucleation score read?
A: -0.596 ± 0.37

Q: For FSFSEHRL, which amyloid nucleation score is on record?
A: 0.045 ± 0.79

Q: Which amyloid nucleation score does the source give for FSGFSLRSPTTRGGVCGKTV here?
A: 0.575 ± 0.47

Q: Which amyloid nucleation score does the source give for FSGSIVIAGGIVSMRDPGLR here?
A: -0.596 ± 0.79

Q: With FSHYLSRRGRPYHANCKEAL as the substance, how does the amyloid nucleation score read?
A: -0.922 ± 0.39

Q: Which amyloid nucleation score does the source give for FSIGCVMGLAINLSGFALWV here?
A: 1.84 ± 0.14

Q: For FSIYYRGPRQVSTYRDLIPV, which amyloid nucleation score is on record?
A: -0.429 ± 0.37

Q: For FSLCANCNIMMPRSFLSYT, which amyloid nucleation score is on record?
A: 5.24 ± 0.078

Q: For FSLLD, which amyloid nucleation score is on record?
A: -0.264 ± 0.45

Q: With FSRICKAMYQKSGYKINGIN as the substance, how does the amyloid nucleation score read?
A: -0.283 ± 1

Q: With FSRMPLMDESFWFTCSICVM as the substance, how does the amyloid nucleation score read?
A: 2.64 ± 0.068

Q: With FSRYGRMRFLHCSTFSLMPI as the substance, how does the amyloid nucleation score read?
A: -0.07 ± 0.76

Q: With FSSIDWLCRRCSQGNRAGID as the substance, how does the amyloid nucleation score read?
A: 0.371 ± 0.66

Q: With FSSSWKGRFVNNSRVVGKSR as the substance, how does the amyloid nucleation score read?
A: -0.367 ± 0.43

Q: Which amyloid nucleation score does the source give for FSTQGTPSSSLDWLNRLTVW here?
A: 0.102 ± 0.36

Q: With FSVCHVQDCSSAGRMYYLRL as the substance, how does the amyloid nucleation score read?
A: 3.98 ± 0.055

Q: For FSVIICVTALVWACCCTRIV, which amyloid nucleation score is on record?
A: 1.09 ± 0.36

Q: For FSVLWEMDRLVHG, which amyloid nucleation score is on record?
A: 0.95 ± 0.29

Q: Which amyloid nucleation score does the source give for FSWLSPMWYMLNDRKLYGNP here?
A: 0.779 ± 0.42

Q: With FSWSYDVDIT as the substance, how does the amyloid nucleation score read?
A: inactive

Q: For FSYPGWFGFRS, which amyloid nucleation score is on record?
A: inactive

Q: With FSYQSHY as the substance, how does the amyloid nucleation score read?
A: 0.466 ± 0.23

Q: Which amyloid nucleation score does the source give for FSYRCFINTSQFYSAIKIFL here?
A: 0.691 ± 0.14

Q: Which amyloid nucleation score does the source give for FTIHWRVGCTQWLEAVIGYM here?
A: 4.07 ± 0.1

Q: Which amyloid nucleation score does the source give for FTLGANLT here?
A: -0.855 ± 0.76

Q: Which amyloid nucleation score does the source give for FTLKINVPETGTIVLPELGS here?
A: 0.235 ± 0.48

Q: For FTLWFQTLARGGMLARNLFK, which amyloid nucleation score is on record?
A: -1.17 ± 0.75

Q: For FTRTWLCIHAEYARCLGTCV, which amyloid nucleation score is on record?
A: 5.05 ± 0.053

Q: For FTVKGTITVYFMVAV, which amyloid nucleation score is on record?
A: 2.17 ± 0.11

Q: Which amyloid nucleation score does the source give for FVEMYGLWPSFGVKRKVLKV here?
A: -0.904 ± 0.53

Q: With FVESVSEPALCIFKVSGYCS as the substance, how does the amyloid nucleation score read?
A: -0.685 ± 0.79

Q: With FVINSCENVARTHRVCQLAM as the substance, how does the amyloid nucleation score read?
A: -0.115 ± 0.37

Q: For FVIVVFRPLGKWQRLFFCNC, which amyloid nucleation score is on record?
A: 0.811 ± 0.21

Q: Which amyloid nucleation score does the source give for FVLCLDLHDESQERWETIRR here?
A: 0.925 ± 0.67

Q: For FVLHIMRLSCYCE, which amyloid nucleation score is on record?
A: -0.29 ± 0.45

Q: For FVMNGPLWMTLANMSMNHNL, which amyloid nucleation score is on record?
A: 4.21 ± 0.06

Q: Which amyloid nucleation score does the source give for FVNIFIIHADYVGHRPAELR here?
A: 9.092 ± 0.081

Q: Which amyloid nucleation score does the source give for FVRHTHFG here?
A: -1.21 ± 1.1

Q: For FVTRGSVAMTQVGYNTVIRM, which amyloid nucleation score is on record?
A: 5.64 ± 0.061

Q: With FVTTENLVNSLVLNMARAKK as the substance, how does the amyloid nucleation score read?
A: 3.44 ± 0.097

Q: With FVVQFMGADHAFKERFGGH as the substance, how does the amyloid nucleation score read?
A: 1.87 ± 0.2

Q: For FWCGCNFVVHLYVTSSSLKP, which amyloid nucleation score is on record?
A: 8.006 ± 0.065

Q: For FWIDTYGGTNFKGCICIITG, which amyloid nucleation score is on record?
A: 4.39 ± 0.11

Q: With FWLSTWSFNVVYPDGEAQKS as the substance, how does the amyloid nucleation score read?
A: -0.303 ± 0.48

Q: Which amyloid nucleation score does the source give for FWLSYTDLWNNY here?
A: inactive

Q: For FWRAFMLHWGNFLLMRALHE, which amyloid nucleation score is on record?
A: inactive

Q: For FWRKVCVDDRTT, which amyloid nucleation score is on record?
A: -0.121 ± 0.43

Q: Which amyloid nucleation score does the source give for FWRLWIVCIPLVYLRR here?
A: 0.131 ± 1

Q: With FWSIMWLVCPGAMWCNT as the substance, how does the amyloid nucleation score read?
A: 1.84 ± 0.28

Q: Which amyloid nucleation score does the source give for FYAIGFLIGGLHFWDWHIWF here?
A: -0.189 ± 0.64

Q: With FYECNMSQVRDFPLHMYRYS as the substance, how does the amyloid nucleation score read?
A: inactive

Q: For FYIIRD, which amyloid nucleation score is on record?
A: -0.866 ± 0.76

Q: For FYITRLVHFNLIYEGLGFLR, which amyloid nucleation score is on record?
A: 1.05 ± 0.23

Q: With FYKGYACHITAQYNLCVDNA as the substance, how does the amyloid nucleation score read?
A: -0.146 ± 1

Q: Which amyloid nucleation score does the source give for FYLGYQTRCYSLIGDIE here?
A: 3.51 ± 0.05

Q: Which amyloid nucleation score does the source give for FYLRFNTFVSDTNCLTDWLA here?
A: 3.46 ± 0.087

Q: Which amyloid nucleation score does the source give for FYQFLNSNGKYTGVYGAAPR here?
A: -1.01 ± 0.41

Q: For FYRNLLTFFYGVSFN, which amyloid nucleation score is on record?
A: -0.807 ± 1

Q: Which amyloid nucleation score does the source give for FYSFLFFHPIGMFARVYKCF here?
A: inactive

Q: With FYSLLCTFPSLLTDLLLVHR as the substance, how does the amyloid nucleation score read?
A: -0.66 ± 0.26

Q: Which amyloid nucleation score does the source give for FYSTLFHFPYLVDQMYGPTI here?
A: -1.29 ± 1

Q: For FYVSAFMHIKVLYPVNNRLG, which amyloid nucleation score is on record?
A: 3.62 ± 0.11

Q: Which amyloid nucleation score does the source give for FYWNMYGDFDFDPSAPGTNG here?
A: inactive

Q: For GADGCCHNMDCGFLNINWTN, which amyloid nucleation score is on record?
A: 8.959 ± 0.049

Q: With GADGTSVLDFCDSVTV as the substance, how does the amyloid nucleation score read?
A: -1.32 ± 0.44

Q: With GAGPEEPDSLDEVIVT as the substance, how does the amyloid nucleation score read?
A: 0.202 ± 0.3

Q: For GALGTRRFSGMCLVCESRSG, which amyloid nucleation score is on record?
A: 5.28 ± 0.097

Q: For GAMTSMDVCL, which amyloid nucleation score is on record?
A: -0.062 ± 0.65

Q: With GANMLETV as the substance, how does the amyloid nucleation score read?
A: -0.085 ± 0.47

Q: For GATCTSCDRCIALVSGGRKR, which amyloid nucleation score is on record?
A: 0.313 ± 0.44

Q: For GCDVDKVNGRRVVYPDTEGL, which amyloid nucleation score is on record?
A: 0.697 ± 0.81

Q: With GCGCATGREDTPGNIGWMV as the substance, how does the amyloid nucleation score read?
A: 0.507 ± 0.25

Q: With GCIIFGYLG as the substance, how does the amyloid nucleation score read?
A: 1.57 ± 0.16

Q: With GCISVNCHSLLRTHAFRG as the substance, how does the amyloid nucleation score read?
A: 1.28 ± 0.1

Q: For GCKSGDQDLALRNGCRKQRS, which amyloid nucleation score is on record?
A: 0.594 ± 0.45

Q: Which amyloid nucleation score does the source give for GCRGHFMYRTW here?
A: inactive

Q: Which amyloid nucleation score does the source give for GCRHYYWMMCNLVTFMKRES here?
A: 7.237 ± 0.028

Q: Which amyloid nucleation score does the source give for GCRRETEDVSGRLCCVVWSL here?
A: 0.206 ± 0.5

Q: Which amyloid nucleation score does the source give for GCSWEITDVHGGRLKLAMDP here?
A: 1.12 ± 0.32

Q: Which amyloid nucleation score does the source give for GCYISLHMCLE here?
A: 3.84 ± 0.049

Q: For GDCNGSLLKWWR, which amyloid nucleation score is on record?
A: 0.395 ± 0.55
